Experimental data taken from EP4782466A1, “FUSION PROTEIN FOR INACTIVATING CORONAVIRUS AND USE THEREOF” (priority 2023, dated 2025).

What was measured:
Test in all cases: cell-based or functional assay
[1] = molecular target: S protein of SARS-CoV (SARS-CoV) (UniProt P59594)
[2] = molecular target: S protein of bat-derived SARS-CoV-like coronavirus Rs3367 (bat-derived SARS-CoV-like coronavirus Rs3367)
[3] = molecular target: S protein of bat-derived SARS-CoV-like coronavirus WIV1 (bat-derived SARS-CoV-like coronavirus WIV1)
[4] = molecular target: S protein of SARS-CoV-2 prototype strain (SARS-CoV-2 prototype) (UniProt P0DTC2)
[5] = molecular target: S protein of Human Coronavirus NL63 (Human Coronavirus NL63) (UniProt Q6Q1S2)

ACE2 protein alone (ACE2 peptidase domain alone) (from UniProt Q9BYF1 18-615) (receptor)
EC50, inactivation of pseudovirus (Caco-2, luciferase) [1]: 1240 nM | IC50, inhibition of pseudovirus infection (Caco-2, luciferase) [1]: 9.5 nM | EC50, inactivation of pseudovirus (Caco-2, luciferase) [2]: 274 nM | IC50, inhibition of pseudovirus infection (Caco-2, luciferase) [2]: 249 nM | EC50, inactivation of pseudovirus (Caco-2, luciferase) [3]: 758 nM | IC50, inhibition of pseudovirus infection (Caco-2, luciferase) [3]: 239 nM

AL2E protein (ACE2-linker-EK1 fusion protein with (GGGGS)2 linker) (from UniProt Q9BYF1 18-615)
IC50, inhibition of pseudovirus infection (Caco-2, luciferase) [4]: 0.6 nM

AL5E protein (ACE2-linker-EK1 fusion protein with (GGGGS)5 linker)
EC50, inactivation of pseudovirus (Caco-2, luciferase) [5]: 1.08 nM | Fold enhancement in activity of AL5E over ACE2 (EC50, pseudovirus inactivation) [5]: 540 fold | Fold enhancement in activity of AL5E over ACE2 (IC50, pseudovirus inhibition) [5]: 34.4 fold | IC50, inhibition of pseudovirus infection (Caco-2, luciferase) [5]: 0.83 nM | EC50, inactivation of pseudovirus (Caco-2, luciferase) [1]: 18.1 nM | Fold enhancement in activity of AL5E over ACE2 (EC50, pseudovirus inactivation) [1]: 68.1 fold | Fold enhancement in activity of AL5E over ACE2 (IC50, pseudovirus inhibition) [1]: 13.8 fold | IC50, inhibition of pseudovirus infection (Caco-2, luciferase) [1]: 0.69 nM | EC50, inactivation of pseudovirus (Caco-2, luciferase) [4]: 5.1 nM | Fold enhancement of AL5E over ACE2 (EC50, pseudovirus inactivation) [4]: 22.2 fold | Fold enhancement of AL5E over ACE2 (IC50, pseudovirus inhibition) [4]: 26.9 fold | IC50, inhibition of pseudovirus infection (Caco-2, luciferase) [4]: 0.26 nM | EC50, inactivation of pseudovirus (Caco-2, luciferase) [2]: 10.7 nM | Fold enhancement in activity of AL5E over ACE2 (EC50, pseudovirus inactivation) [2]: 25.6 fold | Fold enhancement in activity of AL5E over ACE2 (IC50, pseudovirus inhibition) [2]: 42.2 fold | IC50, inhibition of pseudovirus infection (Caco-2, luciferase) [2]: 5.9 nM | EC50, inactivation of pseudovirus (Caco-2, luciferase) [3]: 3.54 nM | Fold enhancement in activity of AL5E over ACE2 (EC50, pseudovirus inactivation) [3]: 214 fold | Fold enhancement in activity of AL5E over ACE2 (IC50, pseudovirus inhibition) [3]: 71.2 fold | IC50, inhibition of pseudovirus infection (Caco-2, luciferase) [3]: 3.36 nM

AL6E protein (ACE2-linker-EK1 fusion protein with (GGGGS)6 linker)
IC50, inhibition of pseudovirus infection (Caco-2, luciferase) [4]: 0.23 nM

AL7E protein (ACE2-linker-EK1 fusion protein with (GGGGS)7 linker)
IC50, inhibition of pseudovirus infection (Caco-2, luciferase) [4]: 0.37 nM

EK1 polypeptide
IC50, inhibition of pseudovirus infection (Caco-2, luciferase) [5]: 1070 nM | IC50, inhibition of pseudovirus infection (Caco-2, luciferase) [1]: 841 nM | IC50, inhibition of pseudovirus infection (Caco-2, luciferase) [4]: 186 nM | IC50, inhibition of pseudovirus infection (Caco-2, luciferase) [2]: 1340 nM | IC50, inhibition of pseudovirus infection (Caco-2, luciferase) [3]: 2450 nM
